Laboratory results as given in article PMC5171940 (2016).
Where no end group is shown, it is not given here.

Key:
[1] = target: T1, Aβ monomers on the SPR chip: biotinylated Aβ 11–28 (also: biotin, position not given here); assay: SPR
T1 chain: EVHHQKLVFFAEDVGSNK

[2] = target: Aβ oligomers: soluble prefibrillar aggregates of biotinylated Aβ(1–42) (biotin (position not given)); assay: SPR
Chain of Aβ oligomers: soluble prefibrillar aggregates of biotinylated Aβ(1–42) (biotin (position not given)) (P05067 672-713): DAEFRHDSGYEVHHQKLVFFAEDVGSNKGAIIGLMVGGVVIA

B1: Crenezumab, fully humanized anti-Aβ monoclonal IgG4 (antibody, V domains shown)
VH: EVQLVESGGGLVQPGGSLRLSCAASGFTFSSYGMSWVRQAPGKGLELVASINSNGGSTYYPDSVKGRFTISRDNAKNSLYLQMNSLRAEDTAVYYCASGDYWGQGTTVTVSS
VL: DIVMTQSPLSLPVTPGEPASISCRSSQSLVYSNGDTYLHWYLQKPGQSPQLLIYKVSNRFSGVPDRFSGSGSGTDFTLKISRVEAEDVGVYYCSQSTHVPWTFGQGTKVEIK
Kd [1]: 3.2 nM
Kd [2]: 0.42 nM
